Experimental data reported in the supplement of paper PMC9233669.
Variants at the floor of the assay were thinned out.

Assays:
biotinyl-Leu-oxazolone = experiment: self-aminoacylation, catalytic enhancement (BLO) (fold over background); higher = more active; k-Seq, kA / k0A0; sequences stand for … in GGGAAUGGAUCCACAUCUACGAAUUC…UUCACUGCAGACUUGACGAAGCUG
How it was run: (§1)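 Each biotinyl-aminoacyl-oxazolone, at 2–1250 μM, was incubated with mutagenized RNA pools (0.43 μM) carrying a 21-nt variable region. The 50 μL reactions contained HEPES/NaCl/KCl/MgCl2/CaCl2 buffer with 5% acetonitrile at pH 6.9–7.0 and ran for 90 minutes at room temperature. After streptavidin capture, RNA was measured by qPCR in triplicate and by Illumina sequencing, and catalytic enhancement was calculated as median kA over the uncatalyzed rate from a pseudo-first-order fit of per-sequence fraction reacted.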

biotinyl-Met-oxazolone = experiment: self-aminoacylation, catalytic enhancement (BMO) (fold over background); higher = more active; k-Seq, kA / k0A0; sequences stand for … in GGGAAUGGAUCCACAUCUACGAAUUC…UUCACUGCAGACUUGACGAAGCUG
How it was run: as §1

biotinyl-Trp-oxazolone = experiment: self-aminoacylation, catalytic enhancement (BWO) (fold over background); higher = more active; k-Seq, kA / k0A0; sequences stand for … in GGGAAUGGAUCCACAUCUACGAAUUC…UUCACUGCAGACUUGACGAAGCUG
How it was run: as §1

biotinyl-Ile-oxazolone = experiment: self-aminoacylation, catalytic enhancement (BIO) (fold over background); higher = more active; k-Seq, kA / k0A0; sequences stand for … in GGGAAUGGAUCCACAUCUACGAAUUC…UUCACUGCAGACUUGACGAAGCUG
How it was run: as §1

biotinyl-Phe-oxazolone = experiment: self-aminoacylation, catalytic enhancement (BFO) (fold over background); higher = more active; k-Seq, kA / k0A0; sequences stand for … in GGGAAUGGAUCCACAUCUACGAAUUC…UUCACUGCAGACUUGACGAAGCUG
How it was run: as §1

biotinyl-Val-oxazolone = experiment: self-aminoacylation, catalytic enhancement (BVO) (fold over background); higher = more active; k-Seq, kA / k0A0; sequences stand for … in GGGAAUGGAUCCACAUCUACGAAUUC…UUCACUGCAGACUUGACGAAGCUG
How it was run: as §1

AUUCACCUGGGUCAUCGGGAG [Fam2.2 aminoacylation ribozyme variant]
self-aminoacylation (biotinyl-Leu-oxazolone): 1.51
self-aminoacylation (biotinyl-Met-oxazolone): 1.86
self-aminoacylation (biotinyl-Trp-oxazolone): 2.29
self-aminoacylation (biotinyl-Ile-oxazolone): 1.65
self-aminoacylation (biotinyl-Phe-oxazolone): 7.65
self-aminoacylation (biotinyl-Val-oxazolone): 1.62

CCACACUUCAAGAUAUCGGUC [Fam1B.1 aminoacylation ribozyme variant]
self-aminoacylation (biotinyl-Leu-oxazolone): 0.736
self-aminoacylation (biotinyl-Met-oxazolone): 0.624
self-aminoacylation (biotinyl-Trp-oxazolone): 0.657
self-aminoacylation (biotinyl-Ile-oxazolone): 0.774
self-aminoacylation (biotinyl-Phe-oxazolone): 0.633
self-aminoacylation (biotinyl-Val-oxazolone): 0.795

AUUCCCCUGGUCAUCGAGUUA [Fam2.1 aminoacylation ribozyme variant]
self-aminoacylation (biotinyl-Leu-oxazolone): 1.19
self-aminoacylation (biotinyl-Met-oxazolone): 1.09
self-aminoacylation (biotinyl-Trp-oxazolone): 1.08
self-aminoacylation (biotinyl-Ile-oxazolone): 1.33
self-aminoacylation (biotinyl-Phe-oxazolone): 1.25
self-aminoacylation (biotinyl-Val-oxazolone): 1.36

AUUACCCUGGUCUUCGAUUGA [Fam2.1 aminoacylation ribozyme variant]
self-aminoacylation (biotinyl-Leu-oxazolone): 0.67
self-aminoacylation (biotinyl-Met-oxazolone): 0.723
self-aminoacylation (biotinyl-Trp-oxazolone): 0.41
self-aminoacylation (biotinyl-Ile-oxazolone): 0.769
self-aminoacylation (biotinyl-Phe-oxazolone): 0.383
self-aminoacylation (biotinyl-Val-oxazolone): 0.779

CUACCUCAAACAAUCGGUCUU [Fam1A.1 aminoacylation ribozyme variant]
self-aminoacylation (biotinyl-Leu-oxazolone): 0.784
self-aminoacylation (biotinyl-Met-oxazolone): 0.623
self-aminoacylation (biotinyl-Trp-oxazolone): 1.65
self-aminoacylation (biotinyl-Ile-oxazolone): 0.996
self-aminoacylation (biotinyl-Phe-oxazolone): 1.34
self-aminoacylation (biotinyl-Val-oxazolone): 0.865

AUUCACCAAGGUCAUCGAGUG [Fam2.2 aminoacylation ribozyme variant]
self-aminoacylation (biotinyl-Leu-oxazolone): 4.52
self-aminoacylation (biotinyl-Met-oxazolone): 4.1
self-aminoacylation (biotinyl-Trp-oxazolone): 2.57
self-aminoacylation (biotinyl-Ile-oxazolone): 2.27
self-aminoacylation (biotinyl-Phe-oxazolone): 14.4
self-aminoacylation (biotinyl-Val-oxazolone): 2.23

AUUCAACUAGGGCAUCGGGUG [Fam2.2 aminoacylation ribozyme variant]
self-aminoacylation (biotinyl-Leu-oxazolone): 4.3
self-aminoacylation (biotinyl-Met-oxazolone): 3.16
self-aminoacylation (biotinyl-Trp-oxazolone): 2.99
self-aminoacylation (biotinyl-Ile-oxazolone): 2.7
self-aminoacylation (biotinyl-Phe-oxazolone): 22.4
self-aminoacylation (biotinyl-Val-oxazolone): 2.88

AUUAACCUAGGUCAUUGGGUG [Fam2.2 aminoacylation ribozyme variant]
self-aminoacylation (biotinyl-Leu-oxazolone): 3.23
self-aminoacylation (biotinyl-Met-oxazolone): 2.88
self-aminoacylation (biotinyl-Trp-oxazolone): 2.85
self-aminoacylation (biotinyl-Ile-oxazolone): 1.93
self-aminoacylation (biotinyl-Phe-oxazolone): 15.2
self-aminoacylation (biotinyl-Val-oxazolone): 2.28

AUUACCCUGUUCAUGGAGUGA [Fam2.1 aminoacylation ribozyme variant]
self-aminoacylation (biotinyl-Leu-oxazolone): 11.4
self-aminoacylation (biotinyl-Met-oxazolone): 11.1
self-aminoacylation (biotinyl-Trp-oxazolone): 11.8
self-aminoacylation (biotinyl-Ile-oxazolone): 5.12
self-aminoacylation (biotinyl-Phe-oxazolone): 62.8
self-aminoacylation (biotinyl-Val-oxazolone): 5.28

CUAAUUCAAACAAUGGGUCUG [Fam1A.1 aminoacylation ribozyme variant]
self-aminoacylation (biotinyl-Leu-oxazolone): 0.643
self-aminoacylation (biotinyl-Met-oxazolone): 0.777
self-aminoacylation (biotinyl-Trp-oxazolone): 0.468
self-aminoacylation (biotinyl-Ile-oxazolone): 0.742
self-aminoacylation (biotinyl-Phe-oxazolone): 0.481
self-aminoacylation (biotinyl-Val-oxazolone): 0.739

AUUCACCUAGGGCAGCGGGUG [Fam2.2 aminoacylation ribozyme variant]
self-aminoacylation (biotinyl-Leu-oxazolone): 7.39
self-aminoacylation (biotinyl-Met-oxazolone): 7.29
self-aminoacylation (biotinyl-Trp-oxazolone): 7.98
self-aminoacylation (biotinyl-Ile-oxazolone): 5.78
self-aminoacylation (biotinyl-Phe-oxazolone): 39.8
self-aminoacylation (biotinyl-Val-oxazolone): 4.76

CAACUUCAAACAACCGGUCUG [Fam1A.1 aminoacylation ribozyme variant]
self-aminoacylation (biotinyl-Leu-oxazolone): 1.14
self-aminoacylation (biotinyl-Met-oxazolone): 1.11
self-aminoacylation (biotinyl-Trp-oxazolone): 1.75
self-aminoacylation (biotinyl-Ile-oxazolone): 1.24
self-aminoacylation (biotinyl-Phe-oxazolone): 3.54
self-aminoacylation (biotinyl-Val-oxazolone): 1.32

CUACCUCAAAAAAUCGGUCUG [Fam1A.1 aminoacylation ribozyme variant]
self-aminoacylation (biotinyl-Leu-oxazolone): 1.49
self-aminoacylation (biotinyl-Met-oxazolone): 1.41
self-aminoacylation (biotinyl-Trp-oxazolone): 1.3
self-aminoacylation (biotinyl-Ile-oxazolone): 1.02
self-aminoacylation (biotinyl-Phe-oxazolone): 1.28
self-aminoacylation (biotinyl-Val-oxazolone): 1.01

AAGUUCGCUAAUAGUCGCAAG [Fam3.1 aminoacylation ribozyme variant]
self-aminoacylation (biotinyl-Leu-oxazolone): 1.94
self-aminoacylation (biotinyl-Met-oxazolone): 1.91
self-aminoacylation (biotinyl-Trp-oxazolone): 2.94
self-aminoacylation (biotinyl-Ile-oxazolone): 2.04
self-aminoacylation (biotinyl-Phe-oxazolone): 6.36
self-aminoacylation (biotinyl-Val-oxazolone): 1.81

CUACUUCCAACACUCGGUCUG [Fam1A.1 aminoacylation ribozyme variant]
self-aminoacylation (biotinyl-Leu-oxazolone): 1.01
self-aminoacylation (biotinyl-Met-oxazolone): 1.03
self-aminoacylation (biotinyl-Trp-oxazolone): 0.796
self-aminoacylation (biotinyl-Ile-oxazolone): 0.978
self-aminoacylation (biotinyl-Phe-oxazolone): 0.522
self-aminoacylation (biotinyl-Val-oxazolone): 0.958

AAGUAUGCUAAUAUUCGCAAG [Fam3.1 aminoacylation ribozyme variant]
self-aminoacylation (biotinyl-Leu-oxazolone): 2.04
self-aminoacylation (biotinyl-Met-oxazolone): 1.76
self-aminoacylation (biotinyl-Trp-oxazolone): 2.45
self-aminoacylation (biotinyl-Ile-oxazolone): 1.95
self-aminoacylation (biotinyl-Phe-oxazolone): 1.45
self-aminoacylation (biotinyl-Val-oxazolone): 1.46

AUUCACGUAGGUCAUCGCGUG [Fam2.2 aminoacylation ribozyme variant]
self-aminoacylation (biotinyl-Leu-oxazolone): 15.8
self-aminoacylation (biotinyl-Met-oxazolone): 16
self-aminoacylation (biotinyl-Trp-oxazolone): 11.1
self-aminoacylation (biotinyl-Ile-oxazolone): 7.52
self-aminoacylation (biotinyl-Phe-oxazolone): 119
self-aminoacylation (biotinyl-Val-oxazolone): 9.95

AUUCCCCUGGUCAUCUAGUGA [Fam2.1 aminoacylation ribozyme variant]
self-aminoacylation (biotinyl-Leu-oxazolone): 11.4
self-aminoacylation (biotinyl-Met-oxazolone): 11.9
self-aminoacylation (biotinyl-Trp-oxazolone): 13
self-aminoacylation (biotinyl-Ile-oxazolone): 5.92
self-aminoacylation (biotinyl-Phe-oxazolone): 85.5
self-aminoacylation (biotinyl-Val-oxazolone): 6.23

CUACCGCAAACAAUCGGUCUG [Fam1A.1 aminoacylation ribozyme variant]
self-aminoacylation (biotinyl-Leu-oxazolone): 0.896
self-aminoacylation (biotinyl-Met-oxazolone): 0.981
self-aminoacylation (biotinyl-Trp-oxazolone): 0.689
self-aminoacylation (biotinyl-Ile-oxazolone): 0.857
self-aminoacylation (biotinyl-Phe-oxazolone): 2.36
self-aminoacylation (biotinyl-Val-oxazolone): 0.961

AUUACCCGGGCCAUCGAGUGA [Fam2.1 aminoacylation ribozyme variant]
self-aminoacylation (biotinyl-Leu-oxazolone): 10.1
self-aminoacylation (biotinyl-Met-oxazolone): 8.49
self-aminoacylation (biotinyl-Trp-oxazolone): 8.23
self-aminoacylation (biotinyl-Ile-oxazolone): 4.18
self-aminoacylation (biotinyl-Phe-oxazolone): 41.7
self-aminoacylation (biotinyl-Val-oxazolone): 5.47

CUACUUCAAUUAAUCGGUCUG [Fam1A.1 aminoacylation ribozyme variant]
self-aminoacylation (biotinyl-Leu-oxazolone): 1.33
self-aminoacylation (biotinyl-Met-oxazolone): 1.03
self-aminoacylation (biotinyl-Trp-oxazolone): 13.9
self-aminoacylation (biotinyl-Ile-oxazolone): 1.08
self-aminoacylation (biotinyl-Phe-oxazolone): 18.7
self-aminoacylation (biotinyl-Val-oxazolone): 0.985

AUUCACCUACAUCAUCGGGUG [Fam2.2 aminoacylation ribozyme variant]
self-aminoacylation (biotinyl-Leu-oxazolone): 3.91
self-aminoacylation (biotinyl-Met-oxazolone): 3.63
self-aminoacylation (biotinyl-Trp-oxazolone): 3.07
self-aminoacylation (biotinyl-Ile-oxazolone): 2.19
self-aminoacylation (biotinyl-Phe-oxazolone): 22.1
self-aminoacylation (biotinyl-Val-oxazolone): 2.06

AUUACCUUGGUCAUCGAGUGU [Fam2.1 aminoacylation ribozyme variant]
self-aminoacylation (biotinyl-Leu-oxazolone): 3.59
self-aminoacylation (biotinyl-Met-oxazolone): 3.47
self-aminoacylation (biotinyl-Trp-oxazolone): 3.8
self-aminoacylation (biotinyl-Ile-oxazolone): 2.19
self-aminoacylation (biotinyl-Phe-oxazolone): 3.39
self-aminoacylation (biotinyl-Val-oxazolone): 2.37

CCACACUUAAAGCAAACGGUC [Fam1B.1 aminoacylation ribozyme variant]
self-aminoacylation (biotinyl-Leu-oxazolone): 0.616
self-aminoacylation (biotinyl-Met-oxazolone): 0.502
self-aminoacylation (biotinyl-Trp-oxazolone): 0.578
self-aminoacylation (biotinyl-Ile-oxazolone): 0.685
self-aminoacylation (biotinyl-Phe-oxazolone): 0.924
self-aminoacylation (biotinyl-Val-oxazolone): 0.765

CCACAUUUCAAGCAAUCGUUC [Fam1B.1 aminoacylation ribozyme variant]
self-aminoacylation (biotinyl-Leu-oxazolone): 0.798
self-aminoacylation (biotinyl-Met-oxazolone): 0.83
self-aminoacylation (biotinyl-Trp-oxazolone): 0.727
self-aminoacylation (biotinyl-Ile-oxazolone): 0.94
self-aminoacylation (biotinyl-Phe-oxazolone): 1.13
self-aminoacylation (biotinyl-Val-oxazolone): 1.16

AAGUUCGCUACUAGUCGCAAG [Fam3.1 aminoacylation ribozyme variant]
self-aminoacylation (biotinyl-Leu-oxazolone): 1.5
self-aminoacylation (biotinyl-Met-oxazolone): 1.67
self-aminoacylation (biotinyl-Trp-oxazolone): 1.34
self-aminoacylation (biotinyl-Ile-oxazolone): 2.08
self-aminoacylation (biotinyl-Phe-oxazolone): 2.28
self-aminoacylation (biotinyl-Val-oxazolone): 1.79
